Earlier results as cited in article PMC3466315.

Target: NifL 1-140 (Azotobacter vinelandii) (UniProt P30663)
Settings: cited from earlier work

Chain of NifL 1-140 (P30663 1-140): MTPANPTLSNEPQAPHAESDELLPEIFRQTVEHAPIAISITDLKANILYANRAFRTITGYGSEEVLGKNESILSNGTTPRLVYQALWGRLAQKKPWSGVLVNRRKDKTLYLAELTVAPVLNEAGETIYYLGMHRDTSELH

NifL 1-140 (from UniProt P30663)
Kd: 150 nM
